Key:
rNav1.2a = assay: Two-electrode voltage-clamp, rNav1.2a expressed in Xenopus oocytes; assay type: cell-based, rat; conditions: 100 nM toxin
Excerpt: The DNA sequence of rat (r)Nav1.2a (provided by A. Goldin, University of California, Irvine, Irvine, Calif.), rKv2.1 (provided by K. J. Swartz, National Institutes of Health), and the rNav1.2a/Kv2.1 VSD II or IV chimera was confirmed by automated DNA sequencing, and cRNA was synthesized using T7 polymerase (mMessage mMachine™ kit; Life Technologies) after linearizing the DNA with appropriate restriction enzymes. Channels were expressed in Xenopus oocytes (obtained from Xenopus 1) and studied after a 1-d incubation after cRNA injection (incubated at 17° C. in 96 mM NaCl, 2 mM KCl, 5 mM HEPES, 1 mM MgCl2, 1.8 mM CaCl2, and 50 μg/ml gentamycin, pH 7.6 with NaOH) using two-electrode voltage-clamp recording techniques (OC-725C; Warner Instruments) with a 150-μl recording chamber. Data were filtered at 4 kHz and digitized at 20 kHz using pClamp™ 10 software (Molecular Devices). Microelectrode resistances were 0.5-1.5 MΩ when filled with 3 M KCl. For Kv chimera channel experiments, the external recording solution contained (mM): 50 KCl, 50 NaCl, 5 HEPES, 1 MgCl2, and 0.3 CaCl2, pH 7.6 with NaOH. For rNav1.2a experiments, the external recording solution contained (mM): 100 NaCl, 5 HEPES, 1 MgCl2, and 1.8 CaCl2, pH 7.6 with NaOH. All experiments were performed at ˜22° C. Leak and background conductances, identified by blocking the channel with agitoxin-2 (provided by K. J. Swartz), have been subtracted for all of the Kv channel currents shown. […] Voltage-activation relationships were obtained by measuring tail currents for Kv channels or steady-state currents and calculating conductance for Nav channels, and a single Boltzmann function was fitted to the data according to I/Imax=[1c+cexp(−zF(Vc−cV1/2)/RT)]^−1, where I/Imax is the normalized tail-current amplitude, z is the equivalent charge, V1/2 is the half-activation voltage, F is Faraday's constant, R is the gas constant, and T is temperature in kelvin. For all channels, voltage-activation relationships were recorded in the absence and presence of toxin. The ratio of currents (I/I0) recorded in the presence (I) and absence (I0) of toxin was calculated for voltages typically ranging from −140 to 10 cmV, depending on the construct. […] The apparent equilibrium dissociation constant (apparent KD) for Kv channels was calculated according to KD=((1/(1c−cFu^1/4))c−c1)[toxin], assuming four independent toxin-binding sites per channel. Results are given as mean±SEM unless noted otherwise. Offline data analysis was performed using Clampfit 10™ (Molecular Devices), Origin 8.0™ (OriginLab), and Excel™ (Microsoft). All chemicals were obtained from Sigma-Aldrich.
Representative sodium currents were elicited by a 50-ms depolarization to a suitable membrane voltage (−20 to −15 mV) before (black) and after toxin addition (green) from a holding voltage of −90 mV. […] For each toxin, K^+ currents were elicited by a 300-ms depolarization to 0 mV from a holding voltage of −90 mV (tail voltage was −60 mV). […] For each toxin, K^+ currents (top) were elicited by a 300-ms depolarization near the foot of the voltage-activation curve (bottom) from a holding voltage of −90 mV.

[1] = molecular target: rNav1.2a/Kv2.1 VSD IV chimera L1630A; conditions: L1630A substitution; read-out: apparent KD; cited from earlier work
[2] = molecular target: rNav1.2a/Kv2.1 VSD IV paddle chimera; conditions: WT chimera; read-out: apparent KD, WT chimera (previously shown); cited from earlier work
[3] = tested on: rNav1.2a/Kv2.1 VSD IV chimera containing the R1629A/L1630A substitutions; assay type: cell-based, rat
Sequence of rNav1.2a/Kv2.1 VSD IV chimera containing the R1629A/L1630A substitutions (P04775 1605-1636 R1629A/L1630A limits assumed): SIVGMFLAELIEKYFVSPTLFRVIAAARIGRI
Excerpt: The DNA sequence of rat (r)Nav1.2a (provided by A. Goldin, University of California, Irvine, Irvine, Calif.), rKv2.1 (provided by K. J. Swartz, National Institutes of Health), and the rNav1.2a/Kv2.1 VSD II or IV chimera was confirmed by automated DNA sequencing, and cRNA was synthesized using T7 polymerase (mMessage mMachine™ kit; Life Technologies) after linearizing the DNA with appropriate restriction enzymes. Channels were expressed in Xenopus oocytes (obtained from Xenopus 1) and studied after a 1-d incubation after cRNA injection (incubated at 17° C. in 96 mM NaCl, 2 mM KCl, 5 mM HEPES, 1 mM MgCl2, 1.8 mM CaCl2, and 50 μg/ml gentamycin, pH 7.6 with NaOH) using two-electrode voltage-clamp recording techniques (OC-725C; Warner Instruments) with a 150-μl recording chamber. Data were filtered at 4 kHz and digitized at 20 kHz using pClamp™ 10 software (Molecular Devices). […] For all channels, voltage-activation relationships were recorded in the absence and presence of toxin. The ratio of currents (I/I0) recorded in the presence (I) and absence (I0) of toxin was calculated for voltages typically ranging from −140 to 10 cmV, depending on the construct. […] The apparent equilibrium dissociation constant (apparent KD) for Kv channels was calculated according to KD=((1/(1c−cFu^1/4))c−c1)[toxin], assuming four independent toxin-binding sites per channel. […]

Sequence of rNav1.2a/Kv2.1 VSD IV paddle chimera (P04775 1605-1636 limits assumed, stated change not applied): as the sequence (P04775 1605-1636 R1629A/L1630A limits assumed) above, with A25R, A26L counted along it
Sequence of rNav1.2a/Kv2.1 VSD IV chimera L1630A (P04775 1605-1636 L1630A limits assumed): as the sequence (P04775 1605-1636 R1629A/L1630A limits assumed) above, with A25R counted along it

B1: AaHII: Nav channel-selective α-scorpion toxin from Androctonus australis hector; model toxin (protein)
chain: VKDGYIVDDVNCTYFCGRNAYCNEECTKLKGESGYCQWASPYGNACYCYKLPDHVRTKGPGRCH
- effect on rNav1.2a fast inactivation (rNav1.2a; 50-ms test pulse): inhibits rNav1.2a fast inactivation
- fast inactivation time constant (τ) after toxin application (rNav1.2a; single-exponential fit of current decay, n=3, mean±SEM): 4.9±0.1
- Kd [1]: 205 ± 23 nM
- Kd [2]: 1900 nM
- inhibition of the double mutant channel ([3]; 100 nM toxin): strongly inhibits
- Kd ([3]; read-out: apparent KD): 193 ± 42 nM

— patent US10429300B2, “Surface plasmon resonance approach to monitor protein-ligand interactions” (The Johns Hopkins University, priority 2015, dated 2019)
